B10: Chikungunya/SL-CK1 E2 glycoprotein (natural protein)
chain: not shown
notes: E2 glycoprotein of Chikungunya virus strain SL-CK1, recombinant, about 40 kD on the blot; also called CHIKV E2; E2 protein; source: bought: Sino Biological

Key:
[1] = target: B10
[2] = target: B10; test: SPR; LSPR (OpenSPR, Nicoya): E2 protein immobilised on a COOH chip by EDC/NHS, antibodies flowed at 20 uL/min in PBS pH 7.4, 240 s binding, 360 s dissociation, One to One model; conditions: both partners purified
P10-LKIQVSLQIG = target: T1, P10-LKIQVSLQIG (Chikungunya virus, SL-CK1); test: ELISA; peptide ELISA: each 10-mer peptide coated at 1 ug/mL in carbonate buffer pH 9.6, 2 ug/mL antibodies, HRP anti-6xHis; conditions: both partners purified
T1 construct: 10-mer of the Chikungunya/SL-CK1 E2 glycoprotein, residues 46 to 55, domain A
T1 chain: LKIQVSLQIG

[3] = target: T2, E2 glycoprotein of Chikungunya/human/China/GD134/2010, on virions and in infected Vero cells (Chikungunya virus …); test: […]; antibodies 10 ug/mL, […]; conditions: one partner purified
T2 construct: also called CHIKV virion; CHIKV virus

P61-GEEPNYQEEW = target: T3, P61-GEEPNYQEEW (Chikungunya virus, SL-CK1); test: ELISA; peptide ELISA: each 10-mer peptide coated at 1 ug/mL in carbonate buffer pH 9.6, 2 ug/mL antibodies, HRP anti-6xHis; conditions: both partners purified
T3 construct: 10-mer of the Chikungunya/SL-CK1 E2 glycoprotein, domain C; printed as residues 331 to 340 in the results and as 301-310 in the discussion
T3 chain: GEEPNYQEEW

TriNb-2E8 = target: T4, TriNb-2E8 (alpaca); test: SPR; LSPR (OpenSPR, Nicoya): E2 protein immobilised on a COOH chip by EDC/NHS, antibodies flowed at 20 uL/min in PBS pH 7.4, 240 s binding, 360 s dissociation, One to One model; conditions: both partners purified
T4 construct: VHH Nb-2E8, as the VHH of m1; flexible linker, printed as (GGGGS) x 3; VHH Nb-2E8, second copy, as the VHH of m1; VHH Nb-2E8, third copy, as the VHH of m1; also called trivalent Nb-2E8; homo-trimer Nb-2E8 fused to Fc; source: HEK293 cells, pcDNA 3.4, purified (protein A)

BiNb-3C5 = target: T5, BiNb-3C5 (alpaca); test: as above; conditions: both partners purified
T5 construct: VHH Nb-3C5, as the VHH of m2; flexible linker, printed as (GGGGS) x 3; VHH Nb-3C5, second copy, as the VHH of m2; In the sandwich ELISA it was coupled with horseradish peroxidase (HRP Conjugation Kit); also called bivalent Nb-3C5; homo-dimer Nb-3C5 fused to Fc; source: HEK293 cells, pcDNA 3.4, purified (protein A)

TriNb-3C5 = target: T6, TriNb-3C5 (alpaca); test: as above; conditions: both partners purified
T6 construct: VHH Nb-3C5, as the VHH of m2; flexible linker, printed as (GGGGS) x 3; VHH Nb-3C5, second copy, as the VHH of m2; VHH Nb-3C5, third copy, as the VHH of m2; also called trivalent Nb-3C5; homo-trimer Nb-3C5 fused to Fc; source: HEK293 cells, pcDNA 3.4, purified (protein A)

BiNb-2E8 = target: T7, BiNb-2E8 (alpaca); test: as above; conditions: both partners purified
T7 construct: VHH Nb-2E8, as the VHH of m1; flexible linker, printed as (GGGGS) x 3; VHH Nb-2E8, second copy, as the VHH of m1; Read here as two VHH in tandem on one chain; also called bivalent Nb-2E8; homo-dimer Nb-2E8 fused to Fc; source: HEK293 cells, pcDNA 3.4, purified (protein A)

B1: 1H7 (Nb-1H7) (VHH)
VHH: AVQLVESGGGLVQAGGSLRISCLASGPPFTDYTMGWFRQAPGKEREFVARITNHGGGTHYADSVKGRFTISRDYATNTVYLQMNSLKPEDTAVYYCAADRGAVYGTREDLYDYWGQGTQVTVSS
B1: binds [1].

B2: 4H6 (Nb-4H6) (VHH)
VHH: AVQLVESGGGLVQPGGSLGISCVASGPPFTDYTLGWFRQAPGKEREFVARITNHGGGTHYADSVKGRFTISREYATNTVYLQMNSLKPEDTAVYYCAADRGAVYGTREDLYDYWGQGTQVTVSS
B2: binds [1].

B3: 1D1 (Nb-1D1) (VHH)
VHH: AVQLVESGGGLVQAGGSLRLSCEASGHTFSSGTMGWFRQAPGMEREFVARINEKGDGTFYADSVKGRFTISRDYAKNTVYLQMNTLKPEDTAVYYCVADRGTVYGTREDLYDYWGQGTQVTVSS
B3: binds [1].

B4: 4G10 (Nb-4G10) (VHH)
VHH: AVQLVESGGGLVQAGGSLRLSCEASGHTFNSGTMGWFRQAPGMEREFVARINEKGDGTFYADSVKGRFTISRDYTKNTVYLQMNTLKPEDTAVYYCVADRGTVYGTREDLYDYWGQGTQVTVSS
B4: binds [1].

B5: 1F1 (Nb-1F1) (VHH)
VHH: AVQLVESGGGLVQAGGSLRLSCAASGRSFSAYTMAWFRQAPGKEREWMASIVRSGGPTYYADSVKDRFTISRENARNTVYLQMNSLKPEDTAVYYCAADLGWTYSRSPELFGSWGQGTQVTVSS
B5: binds [1].

B6: 2B4 (Nb-2B4) (VHH)
VHH: AVQLVESGGGLVQAGGSLRLSCAASGRSSSAYTMAWFRQAPGKEREWMASIVRSGGPTYYADSVKDRFTISRENARNTVYLQMNSLKPEDTAVYYCAADLGWTYSRSPELFGSWGQGTQVTVSS
B6: binds [1].

B7: MoNb-3C5 (VHH)
VHH: AVQLVESGGGLVQAGGSLRLSCAASGRSFSAYTMAWFRQAPGKEREWMASIVRSGGPTYYADSVKDRFTISRENARNTAYLQMNSLKPEDTAVYYCAADLGWTYSRSPELFGSWGQGTQVTVSS
notes: About 28 kDa with the His-SUMO tag; detected through SUMO (anti-SMT3) or the His tag; also called monovalent VHH antibody Nb-3C5; SUMO-tagged VHH; not shown: His6, N-terminal, kept; SUMO, N-terminal, kept
In the case of B7, the Kd [2] is reported as 368 nM, the binding result (P10-LKIQVSLQIG) is reported as “binds” and the binding result [3] is reported as “binds”.

B8: MoNb-2E8 (VHH)
VHH: AVQLVESGGGLVQAGGSLRLSCAASGRSFSAYTMAWFRQAPGKEREWMASIVRSGGPTYYADSVKDRFTISRENARNTVYLQMNSLKPEDTAVYYCAADLGWTYSRSRELFGSWGQGTQVTVSS
notes: About 28 kDa with the His-SUMO tag; detected through SUMO (anti-SMT3) or the His tag; also called monovalent VHH antibody Nb-2E8; SUMO-tagged VHH; not shown: His6, N-terminal, kept; SUMO, N-terminal, kept
For B8, the Kd [2] was 101 nM, the binding result (P61-GEEPNYQEEW) was “binds” and the binding result [3] was “binds”.

B9: 2A3 (Nb-2A3) (VHH)
VHH: AVQLVESGGGLVPTGGSLRLSCTASGRTDNLYTVGWFRQAPGKERELIARITEKGGPTYYADSVKGRFSISTHKSKNAIYLQMNSVKPEDTAVYYCVADRGTVYGTREDLYDYWGQGTQVTVSS
B9: binds [1].

For B10, the Kd (TriNb-2E8) was 4.52 nM, the Kd (BiNb-3C5) was 20.7 nM and the Kd (TriNb-3C5) was 10.4 nM. The Kd (BiNb-2E8) was 2.59 nM.

B11: 2F7 (Nb-2F7) (VHH)
VHH: AVAGESGGGVVQAGGSLRLSCAASGRTFSPYAMGWFRQAPGKERESVAAISWSAGDTYYADSVKGRFTISRDNAKNTVYLQMNSLKPEDTAVYYCASRNTYFSDSGYSNFYAYDYWGQGTQVTVSS
B11: binds [1].

B12: 4C7 (Nb-4C7) (VHH)
VHH: AVQLVESGGGLVQAGGSLRLSCATSGRTLGTYGWFRQAPGKEREFVARFLRNNGLTEYADSVKGRFTISRDDAKNTVELQMIMLKPEDTAVYYCTADPDAVYSRSPALWVYWGQGTQVTVSS
B12: binds [1].

B13: 1A12 (Nb-1A12) (VHH)
VHH: AVQLVESGGGLVQAGGSLRLSCAASGRALTSGTMGWFRQAPGKEREFVARANVKGDGTFYADAVKGRFTISRDYAKNTVYLQMNNLKPEDTAVYFCAADRGTVYGTSEDLYDYWGQGTQVTVSS
B13: binds [1].

B14: 1C11 (Nb-1C11) (VHH)
VHH: AVQLVESGGGLVLAGASLRLSCADSGSGRSLGTYGWFRQAPGKEREFVARISQRGGIDYTDSVKGRFTISRDNSKNTVNLQMTTLTPEDTAVYYCAADPDTVYSRSPALWKYWGQGTQVTVSS
B14: binds [1].

B15: 1G6 (Nb-1G6) (VHH)
VHH: AVQLVESGGGLVQAGGSLRLSCAASGRTFSTYTMGWFRQAPGKEREFVARIIENTGNIYYADSVKGRFTISEDNAKNTLYLQMNNLKPEDTAVYYCVGDRGAVYGTRPDLYDHWGQGTQVTVSS
B15: binds [1].

B16: 1H3 (Nb-1H3) (VHH)
VHH: AVQLVESGGGLVQAGGSLRLSCAASVHTFTMPTMGWFRQAPGKGRELVARFNANINSTYYGDSVKGRFTISRDFAKNTVYLHMSSLRPEDTAVYYCVADRGVVFGTREDLYDYWGQGTQVTVSS
B16: binds [1].

B17: 4C1 (Nb-4C1) (VHH)
VHH: AVQLVESGGGLVQAGGSLRLSCAASVHTFTMPTMGWFRQAPEKGRELVARFNANINSTYYGDSVKGRFTISRDFAKNTVYLHMSSLRPEDTAVYYCVADRGVFFGTREDLYDYWGQGTQVTVSS
B17: binds [1].

B18: 4F8 (Nb-4F8) (VHH)
VHH: AVQLVESGGGTAQAGGPLRLSCKASGRSFSVGTMAWFRQVPGKEREFLVRDSQKGDGTVYAGSVEGRFTISRDYAKNTMDLQMNSLKPEDTAVYYCAADRGTVYGTREDLYDYWGQGTQVTVSS
B18: binds [1].

B19: 3E9 (Nb-3E9) (VHH)
VHH: AVQLVESGGGLVQAGGSLSLSCAASGRTFSAGTMGWFRQAPGKERELIARVIKNGGSTYYTDSVKGRFTIAADFAKSTVYLQMNSLKPEDTALYYCAADRGAVFGTRQELYDDWGQGTQVTVSS
B19: binds [1].

B20: 1E1 (Nb-1E1) (VHH)
VHH: AVQLVESGGGLVETGESLRLSCAASGRTIENYHVGWFRQTSGPEREFLAATSRGNGISTIADSVKGRFTISRDNAKNTVYLQMNALKPEDTAVYICAADDANFVNYRSYRAWDNWGQGTQVTVSS
B20: binds [1].

B21: 2B5 (Nb-2B5) (VHH)
VHH: AVQLVESGGGLVQAGGSLRLSCAASGRTIENYHVGWFRQTSGPEREFLAATSRGNGISTIADSVKGRFTISRDNAKNTVYLQMNALKPEDTAVYICAADDANFVNYRSYRAWDNWGQGTQVTVSS
B21: binds [1].

Reference: article PMC9107221 (Journal of Nanobiotechnology, 2022)
